Experimental data as given in PMC6539309, “PgMYB2, a MeJA-Responsive Transcription Factor, Positively Regulates the Dammarenediol Synthase Gene Expression in Panax Ginseng”.

Target: PgMYB2 (TF fusion) (Panax ginseng, UniProt A0A1Z1CH15 1-280)
Test: EMSA; LightShift Chemiluminescent EMSA kit protocol, room temperature, 20 min, native PAGE; protein stored in 20 mM Tris-HCl pH 7.2; binding buffer not stated
Conditions: protein: recombinant; tags: N-terminal trigger factor (TF) + 6xHis (pCold/TF); label: biotin; blunt

Sequence of PgMYB2 (TF fusion) (A0A1Z1CH15 entry or part of it): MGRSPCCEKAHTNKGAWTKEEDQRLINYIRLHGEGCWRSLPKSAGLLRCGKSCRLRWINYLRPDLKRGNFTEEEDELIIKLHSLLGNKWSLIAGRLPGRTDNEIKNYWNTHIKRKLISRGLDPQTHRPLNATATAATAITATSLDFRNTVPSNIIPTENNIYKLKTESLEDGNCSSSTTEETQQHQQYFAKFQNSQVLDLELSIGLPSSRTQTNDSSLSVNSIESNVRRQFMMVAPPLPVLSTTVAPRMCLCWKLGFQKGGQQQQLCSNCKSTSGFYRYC

B1: MBSII probe (dsDNA)
DNA 1: GACTGGCATTGATTTAAAAGGCGGT
DNA 2: ACCGCCTTTTAAATCAATGCCAGTC
- binding result: binds
